How the values were obtained:
[1] = Stability of ATM protein in whole blood; assay type: physicochemical; conditions: FIG. 3
Method: (§1) It has been observed that ATM protein is unstable in whole blood. […] It is therefore preferable that ATM proteins be isolated and measured shortly after extracting the cells from a patient to obtain the most reliable data. […] Table 2 compares the amount of ATM in two such samples stored at −5° C. and −70° C.

[2] = Stability of ATM in isolated PBMC samples stored at different temperatures, measured by sandwich immunoassay; assay type: physicochemical; conditions: for amount of ATM: in ng/mL (unit assumed)
Method: The following is a sandwich immunoassay which was performed to measure ATM protein in nuclear cell lysates and cell extracts from cell lines and peripheral blood mononuclear cells taken from normal individuals and A-T patients.
Wells of a 96-well flat bottom plate were incubated with two purified commercially available anti-ATM mouse monoclonal antibodies (ATM-2C1, GeneTex, Inc, San Antonio, Tex.; Ab-8, NeoMarkers, Fremont, Calif.) at 5 μg/ml in phosphate-buffered saline, pH 7.4 for 6 hours. After extensive washing and blocking of the wells for one hour with a solution of 3% bovine serum albumin in phosphate buffered saline containing 0.1% Tween-20, standard concentrations of purified ATM protein and nuclear cell lysates or cell extracts (see below) were added to the wells for an overnight incubation at room temperature.
After extensive washing, a rabbit anti-ATM antiserum at a 400× dilution was added to each of the wells and incubated for 3 hours at room temperature. The antiserum came from Novus Biologicals (NB 100-104, Littleton, Colo.). After washing and blocking, an HRP-conjugated goat anti-rabbit IgG antiserum at a 1:6000 dilution was added to each well and incubated for 3 hours at room temperature. The conjugate came from Jackson ImmunoResearch Laboratories (211-035-109, West Grove, Pa.).
The plate was then washed and Pierce ImmunoPure tetramethylbenzidine (TMB) substrate (34021, Rockford, Ill.) was added to each well. After color development, the reaction was stopped with 1M sulfuric acid and the color intensity was measured spectrophometrically at 450 nm. A concentration curve was generated based on signals generated for the purified ATM protein and concentrations of unknown samples were read off the standard curve.
Nuclear lysates were prepared from lymphoblastoid cell lines (EBV-infected) derived from A-T patients and healthy donors using commercially available extraction reagents and procedures (78833, Pierce, Rockford, Ill.). Whole cell extracts were generated from peripheral blood mononuclear cells and lymphoblastoid cell lines by subjecting known numbers of resuspended cells to ultrasonic energy at a 20 kHz frequency generated by a Fisher Sonic Dismembrator (model 550). The disrupted cell product was then added directly to wells of the microtiter plate without any additional manipulations.
as §1

ATM: 370 kDa protein kinase known as "ataxia-telangiectasia, mutated" (ATM), encoded by the A-T gene
stability in whole blood [1]: unstable | stability of ATM levels in a sample ([2]; PBMCs isolated from fresh blood, stored at −70° C. for 6 weeks): relatively stable | amount of ATM ([2]; stored at −5° C., week 0, 3 readings): 444 ± 22 | amount of ATM ([2]; stored at −5° C., week 1, 3 readings): 126 ± 8 | amount of ATM ([2]; stored at −5° C., week 2, 3 readings): 115 ± 14 | amount of ATM ([2]; stored at −5° C., week 3, 3 readings): 66 ± 17 | amount of ATM ([2]; stored at −5° C., week 4, 3 readings): 50 ± 10 | amount of ATM ([2]; stored at −5° C., week 6, 3 readings): 32 ± 2 | amount of ATM ([2]; stored at −70° C., week 0, 3 readings): 444 ± 22 | amount of ATM ([2]; stored at −70° C., week 1, 3 readings): 458 ± 11 | amount of ATM ([2]; stored at −70° C., week 2, 3 readings): 512 ± 63 | amount of ATM ([2]; stored at −70° C., week 3, 3 readings): 424 ± 34 | amount of ATM ([2]; stored at −70° C., week 4, 3 readings): 439 ± 79 | amount of ATM ([2]; stored at −70° C., week 6, 3 readings): 458 ± 69

Source: patent US20040029198A1, “Method of analyzing ataxia-telangiectasia protein” (priority 2002, published 2004)
